From US20170275666A1, “Methods for Preparing Rebaudioside I and Uses” (The Coca-Cola Company, priority 2014, published 2017) come the findings set out here.

Changes are numbered by the printed parent chain.

B1: UGT76G1var48: UGT76G1 variant, mutations V394I_Y397E_Q432E (protein, UniProt Q6VAB4 1-458, looked up, variant V394I Y397E Q432E)
UDP-glycosyltransferase 76G1: MENKTETTVRRRRRIILFPVPFQGHINPILQLANVLYSKGFSITIFHTNFNKPKTSNYPHFTFRFILDNDPQDERISNLPTHGPLAGMRIPIINEHGADELRRELELLMLASEEDEEVSCLITDALWYFAQSVADSLNLRRLVLMTSSLFNFHAHVSLPQFDELGYLDPDDKTRLEEQASGFPMLKVKDIKSAYSNWQILKEILGKMIKQTKASSGVIWNSFKELEESELETVIREIPAPSFLIPLPKHLTASSSSLLDHDRTVFQWLDQQPPSSVLYVSFGSTSEVDEKDFLEIARGLVDSKQSFLWVVRPGFVKGSTWVEPLPDGFLGERGRIVKWVPQQEVLAHGAIGAFWTHSGWNSTLESVCEGVPMIFSDFGLDQPLNARYMSDVLKIGVELENGWERGEIANAIRRVMVDEEGEYIRQNARVLKEKADVSLMKGGSSYESLESLVSYISSL
B2: UGT76G1var52: UGT76G1 variant, mutations D301N_I373L_F377C_I407V (protein, UniProt Q6VAB4 1-458, looked up, variant D301N I373L F377C I407V)
UDP-glycosyltransferase 76G1: B1 UDP-glycosyltransferase 76G1 with D301N, I373L, F377C, I394V, E397Y, I407V, E432Q
B3: UGT76G1var55: UGT76G1 variant, mutations I295M_Q342E_V366I_N409R (protein, UniProt Q6VAB4 1-458, looked up, variant I295M Q342E V366I N409R)
UDP-glycosyltransferase 76G1: B1 UDP-glycosyltransferase 76G1 with I295M, Q342E, V366I, I394V, E397Y, N409R, E432Q
B4: UGT76G1var65: UGT76G1 variant, mutations A33G_A239V_P382M_Q425E (protein, UniProt Q6VAB4 1-458, looked up, variant A33G A239V P382M Q425E)
UDP-glycosyltransferase 76G1: B1 UDP-glycosyltransferase 76G1 with A33G, A239V, P382M, I394V, E397Y, Q425E, E432Q
B5: UGT76G1var51: UGT76G1 variant, mutations K303G_S357C_S389E_V396F (protein, UniProt Q6VAB4 1-458, looked up, variant K303G S357C S389E V396F)
UDP-glycosyltransferase 76G1: B1 UDP-glycosyltransferase 76G1 with K303G, S357C, S389E, I394V, V396F, E397Y, E432Q
B6: UGT76G1var57: UGT76G1 variant, mutations S241I_T263S_L379G_A385T (protein, UniProt Q6VAB4 1-458, looked up, variant S241I T263S L379G A385T)
UDP-glycosyltransferase 76G1: B1 UDP-glycosyltransferase 76G1 with S241I, T263S, L379G, A385T, I394V, E397Y, E432Q
B7: UGT76G1var64: UGT76G1 variant, mutations F22L_A239I_R334H_I407V (protein, UniProt Q6VAB4 1-458, looked up, variant F22L A239I R334H I407V)
UDP-glycosyltransferase 76G1: B1 UDP-glycosyltransferase 76G1 with F22L, A239I, R334H, I394V, E397Y, I407V, E432Q
B8: UGT76G1var63: UGT76G1 variant, mutations F314S_R334H_Q342K_L379G (protein, UniProt Q6VAB4 1-458, looked up, variant F314S R334H Q342K L379G)
UDP-glycosyltransferase 76G1: B1 UDP-glycosyltransferase 76G1 with F314S, R334H, Q342K, L379G, I394V, E397Y, E432Q
B9: UGT76G1var4: UGT76G1 variant, mutations E224D_E231A_F265I (protein, UniProt Q6VAB4 1-458, looked up, variant E224D E231A F265I)
UDP-glycosyltransferase 76G1: B1 UDP-glycosyltransferase 76G1 with E224D, E231A, F265I, I394V, E397Y, E432Q
B10: UGT76G1var62: UGT76G1 variant, mutations L243P_P272A_V394I_V396F (protein, UniProt Q6VAB4 1-458, looked up, variant L243P P272A V394I V396F)
UDP-glycosyltransferase 76G1: B1 UDP-glycosyltransferase 76G1 with L243P, P272A, V396F, E397Y, E432Q
B11: UGT76G1var59: UGT76G1 variant, mutations I335V_K393G_V394I_Y397Q (protein, UniProt Q6VAB4 1-458, looked up, variant I335V K393G V394I Y397Q)
UDP-glycosyltransferase 76G1: B1 UDP-glycosyltransferase 76G1 with I335V, K393G, E397Q, E432Q
B12: UGT76G1var53: UGT76G1 variant, mutations R334K_A352G_P382M_S389E (protein, UniProt Q6VAB4 1-458, looked up, variant R334K A352G P382M S389E)
UDP-glycosyltransferase 76G1: B1 UDP-glycosyltransferase 76G1 with R334K, A352G, P382M, S389E, I394V, E397Y, E432Q
B13: UGT76G1var67: UGT76G1 variant, mutations E224D_F314S_S375R_Y397E (protein, UniProt Q6VAB4 1-458, looked up, variant E224D F314S S375R Y397E)
UDP-glycosyltransferase 76G1: B1 UDP-glycosyltransferase 76G1 with E224D, F314S, S375R, I394V, E432Q
B14: UGT76G1var61: UGT76G1 variant, mutations I43V_F265I_Q266S_L379A (protein, UniProt Q6VAB4 1-458, looked up, variant I43V F265I Q266S L379A)
UDP-glycosyltransferase 76G1: B1 UDP-glycosyltransferase 76G1 with I43V, F265I, Q266S, L379A, I394V, E397Y, E432Q
B15: UGT76G1var58: UGT76G1 variant, mutations S357C_S375M_N409R_Q425E (protein, UniProt Q6VAB4 1-458, looked up, variant S357C S375M N409R Q425E)
UDP-glycosyltransferase 76G1: B1 UDP-glycosyltransferase 76G1 with S357C, S375M, I394V, E397Y, N409R, Q425E, E432Q
B16: UGT76G1var56: UGT76G1 variant, mutations L246F_A352G_S357N_Q432E (protein, UniProt Q6VAB4 1-458, looked up, variant L246F A352G S357N Q432E)
UDP-glycosyltransferase 76G1: B1 UDP-glycosyltransferase 76G1 with L246F, A352G, S357N, I394V, E397Y
B17: UGT76G1var60: UGT76G1 variant, mutations E231A_L243A_V279I_S357N (protein, UniProt Q6VAB4 1-458, looked up, variant E231A L243A V279I S357N)
UDP-glycosyltransferase 76G1: B1 UDP-glycosyltransferase 76G1 with E231A, L243A, V279I, S357N, I394V, E397Y, E432Q
B18: UGT76G1var50: UGT76G1 variant, mutations F22Y_V310I_S375M_F377C (protein, UniProt Q6VAB4 1-458, looked up, variant F22Y V310I S375M F377C)
UDP-glycosyltransferase 76G1: B1 UDP-glycosyltransferase 76G1 with F22Y, V310I, S375M, F377C, I394V, E397Y, E432Q
B19: UGT76G1var3: UGT76G1 variant, mutations I295T_S357C_V366I (protein, UniProt Q6VAB4 1-458, looked up, variant I295T S357C V366I)
UDP-glycosyltransferase 76G1: B1 UDP-glycosyltransferase 76G1 with I295T, S357C, V366I, I394V, E397Y, E432Q
B20: UGT76G1var66: UGT76G1 variant (round 1), mutations F265L_V310I_V366I_A385T (protein, UniProt Q6VAB4 1-458, looked up, variant F265L V310I V366I A385T)
UDP-glycosyltransferase 76G1: B1 UDP-glycosyltransferase 76G1 with F265L, V310I, V366I, A385T, I394V, E397Y, E432Q
B21: UGT76G1var54: UGT76G1 variant, mutations E229A_T284L_R334K_Q342E (protein, UniProt Q6VAB4 1-458, looked up, variant E229A T284L R334K Q342E)
UDP-glycosyltransferase 76G1: B1 UDP-glycosyltransferase 76G1 with E229A, T284L, R334K, Q342E, I394V, E397Y, E432Q
B22: UGT76G1var49: UGT76G1 variant, mutations F41L_Q266E_T284I_Y397Q (protein, UniProt Q6VAB4 1-458, looked up, variant F41L Q266E T284I Y397Q)
UDP-glycosyltransferase 76G1: B1 UDP-glycosyltransferase 76G1 with F41L, Q266E, T284I, I394V, E397Q, E432Q

This data set is described as follows: Directed evolution of UGT76G1, conversion of Rebaudioside D to Rebaudioside M (round 1). In kind it is biochemical. The following applies: 0.5 mM Rebaudioside D, 2.5 mM UDP-Glucose, 100 μL fresh lysate, 30° C., pH 7.2. An excerpt:
Starting from the amino acid sequence of UGT76G1, as is described in Genbank (AAR06912.1), different mutations at various amino acid positions were identified that could alter the activity of the enzyme for the transformation of Rebaudioside D (Reb D) to Rebaudioside M (Reb M). This list of mutations, designed by DNA2.0 ProteinGPS™ strategy, was subsequently used to synthesize 96 variant genes that contained 3, 4 or 5 of these mutations that were codon-optimized for expression in E. coli. The genes were subcloned in the pET30a+ plasmid and used for transformation of E. coli BL21 (DE3) chemically competent cells. The obtained cells were grown in Petri-dishes on solid LB medium in the presence of Kanamycin. Suitable colonies were selected and allowed to grow in liquid LB medium in tubes. Glycerol was added to the suspension as cryoprotectant and 400 μL aliquots were stored at −20° C. and at −80° C.
These storage aliquots of E. coli BL21(DE3) containing the pET30a+_UGT76G1var plasmids were thawed and added to LBGKP medium (20 g/L Luria Broth Lennox; 50 mM PIPES buffer pH 7.00; 50 mM Phosphate buffer pH 7.00; 2.5 g/L glucose and 50 mg/L of Kanamycine). This culture was allowed to shake in a 96 microtiter plate at 135 rpm at 30° C. for 8 h.
3.95 mL of production medium containing 60 g/L of Overnight Express™ Instant TB medium (Novagen®), 10 g/L of glycerol and 50 mg/L of Kanamycin was inoculated with 50 μL of above described culture. In a 48 deepwell plate the resulting culture was allowed to stir at 20° C. The cultures gave significant growth and a good OD (600 nm; 1 cm) was obtained. After 44 h, the cells were harvested by centrifugation and frozen.
Lysis was performed by addition of Bugbuster® Master mix (Novagen®) to the thawed cells and the lysate was recovered by centrifugation. Activity tests were performed with 100 μL of fresh lysate that was added to a solution of Rebaudioside D (final concentration 0.5 mM), MgCl2 (final concentration 3 mM) and UDP-Glucose (final concentration 2.5 mM) in 50 mM phosphate buffer pH 7.2.
The reaction was allowed to run at 30° C. and samples were taken after 2, 4, 7 and 24 h. to determine conversion and initial rate by HPLC (CAD detection) using the analytical method that was described above for the transformation of Rebaudioside D to Rebaudioside M. The results are depicted in the following table.
As to B1, the “Conversion Reb D to Reb M after 24 h (%)” value turned out to be 47.6% and the “initial rate (Reb M area/min)” value was found to be 3.8E+07 Reb M area/min.
On to B2, for which the “Conversion Reb D to Reb M after 24 h (%)” value amounted to 12.9% and the “initial rate (Reb M area/min)” value came to 4.6E+06 Reb M area/min.
On to B3, for which the “Conversion Reb D to Reb M after 24 h (%)” value is listed as 1.0% and the “initial rate (Reb M area/min)” value is reported as 2.2E+05 Reb M area/min.
B4: the “Conversion Reb D to Reb M after 24 h (%)” value is 1.2% and the “initial rate (Reb M area/min)” value is reported as 3.3E+05 Reb M area/min.
Turning to B5, the “Conversion Reb D to Reb M after 24 h (%)” value was found to be 18.7% and the “initial rate (Reb M area/min)” value is 9.5E+06 Reb M area/min.
The like results for B6 were, in that order, 0.8% and 1.5E+05 Reb M area/min.
The like results for B7 were, in that order, 0.3% and 3.1E+04 Reb M area/min.
The like results for B8 were, in that order, 3.4% and 1.2E+06 Reb M area/min.
For the molecule B9, the “Conversion Reb D to Reb M after 24 h (%)” value came to 14.7% and the “initial rate (Reb M area/min)” value was 8.6E+06 Reb M area/min.
On the same counts, the results for B10 are 0.1% and 3.4E+04 Reb M area/min.
As to B11, the “Conversion Reb D to Reb M after 24 h (%)” value is on record as 33.0% and the “initial rate (Reb M area/min)” value is reported as 2.7E+07 Reb M area/min.
The like results for B12 were, in that order, 9.3% and 4.1E+06 Reb M area/min.
On the same counts, the results for B13 are −2.1% and −5.6E+05 Reb M area/min.
In the case of B14, the “Conversion Reb D to Reb M after 24 h (%)” value is listed as 6.4% and the “initial rate (Reb M area/min)” value is reported as 2.0E+06 Reb M area/min.
The like results for B15 were, in that order, 7.5% and 2.2E+06 Reb M area/min.
On the same counts, the results for B16 are 0.4% and 4.1E+04 Reb M area/min.
The like results for B17 were, in that order, 0.5% and 9.5E+04 Reb M area/min.
B18: the “Conversion Reb D to Reb M after 24 h (%)” value amounted to 1.9% and the “initial rate (Reb M area/min)” value was found to be 7.9E+05 Reb M area/min.
B19: the “Conversion Reb D to Reb M after 24 h (%)” value came to 9.6% and the “initial rate (Reb M area/min)” value came out at 1.6E+06 Reb M area/min.
With B20, the “Conversion Reb D to Reb M after 24 h (%)” value amounted to 0.8% and the “initial rate (Reb M area/min)” value stood at 3.7E+05 Reb M area/min.
As for B21, the “Conversion Reb D to Reb M after 24 h (%)” value was determined as 0.7% and the “initial rate (Reb M area/min)” value is recorded as 4.3E+05 Reb M area/min.
On the same counts, the results for B22 are 2.6% and 1.1E+06 Reb M area/min.
